Read-outs that look alike come from different tables or passages of the source.
How the values were obtained:
[1] = molecular target: A/B".1A pentamer mutant 1-142 L44V,V45A,S46L,R47K,S48T (Homo sapiens) (UniProt P09012); experiment: EMSA
[2] = molecular target: U1 snRNP-A 1-142 (Homo sapiens) (UniProt P09012); experiment: EMSA
[3] = molecular target: U2 snRNP-B" 1-109 (Homo sapiens) (UniProt P08579); experiment: EMSA
[4] = tested on: U2 snRNP-B" + U2 snRNP-A' (Homo sapiens); experiment: pulldown; details: A' stimulates B" binding to U2 about 100-fold
[5] = legend says full-length U2, text says U2 stem-loop IV

UniProt P08579, sequence (P08579 1-109): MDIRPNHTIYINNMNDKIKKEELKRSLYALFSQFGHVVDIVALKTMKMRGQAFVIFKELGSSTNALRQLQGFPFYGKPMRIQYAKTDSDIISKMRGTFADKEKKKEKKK

Substance	Kd [1] [nM]	Kd ([2]; earlier estimate 80 nM quoted, 10 mM MgCl2, 150 mM NaCl) [nM]	Kd [3] [nM]	binding signal [4] [fold]	Kd [1, 5] [nM]	Kd [2, 5] [nM]	Kd [3, 5] [nM]
U1SL2 (U1 stem-loop II)	70	30	800				
human U2 RNA				100	900	> 10000	400
